Reference: PMC11889887, “Blockade of αvβ6 and αvβ8 integrins with a chromogranin A-derived peptide inhibits TGFβ activation in tumors and suppresses tumor growth” (Journal of Experimental & Clinical Cancer Research : CR, 2025)
Bridge positions count the residues as written; N and C are the ends. Square brackets hold non-standard residues; d marks the D form. Ends that are not written are not given here. Lys(N3) = [N-]=[N+]=NCCCC[C@H](N)C(=O)O; Pra = C#CC[C@H](N)C(=O)O

Key:
[1] = target: T1, biotinylated recombinant human αvβ8 integrin (human, UniProt P06756 31-1048; P26012 43-684, biotinylated (which chain is not stated) | biotinylated (which chain is not stated)); assay: ELISA; competitive integrin binding assay (taken as Assay 3): plates coated with human latent TGFβ1; various amounts of peptide 5a or 5a-HSA with 10 ng/ml biotinylated αvβ6 or αvβ8 in 20 mM Tris-HCl pH 7.4, 150 mM sodium chloride, 1 mM manganese chloride, 0.05% Tween-20, 0.5% BSA, 1 h; HRP-labeled streptavidin; settings: both partners purified
T1 construct: integrin alpha-V, human, recombinant; integrin beta-8, human, recombinant; Detected by HRP-labeled streptavidin through the biotin; also called biotinylated-αvβ8; source: bought: Acros CROBiosystems (cat. IT8-H82W5)

[2] = target: T2, biotinylated recombinant human αvβ6 integrin (human, UniProt P06756 31-1048; P18564 22-709, biotinylated (which chain is not stated) | biotinylated (which chain is not stated)); assay: as above; settings: both partners purified
T2 construct: integrin alpha-V, human, recombinant; integrin beta-6, human, recombinant; Detected by HRP-labeled streptavidin through the biotin; also called biotinylated-αvβ6; source: bought: Acros CROBiosystems (cat. IT6-H82E4)

Ki [1]: 3.9 nM | Ki [2]: 1.7 nM
Binder: CFETLRGDLRILSILR[Pra]QNL[Lys(N3)]KELQD-NH2 (triazole 17-21) [peptide 5a]
